From US20230074436A1 (DENALI THERAPEUTICS, published 2023)

Target: T1, human alpha-synuclein monomer (human, UniProt P37840 1-140)
Assay: SPR (Biacore 8K), IgG captured on anti-human Fc, aSyn monomer injected
Experimental: (§1) Serial 3-fold dilutions of aSyn were injected at a flow rate of 30 μL/min. Each sample was analyzed using a 3-minute association and a 10-minute dissociation. After each injection, the chip was regenerated using 3 M MgCl₂. Binding response was corrected by subtracting the RU from a flow cell capturing an irrelevant IgG at similar density. A 1:1 Languir model of simultaneous fitting of kₒₙ and koff was used for kinetics analysis.

Row | Binder | Kd
1 | HC6_LC_k3_2_v1 (antibody, V domains shown) VH: EVQLVESGGGLVQPGGSLRLSCAASGFTFSNAAMYWVRQAPGKGLELVSRIRTKPNNYATYHADSVKGRFTISRDDSKNTLYLQMNSLRAEDTAVYYCTADMATGDYWGQGTLVTVSS VL: EIVMTQSPATLSLSPGERATLSCKASQNINKNLDWYQQKPGQAPRPLIYSTNNLKTGIPARFSGSGSGTDFTLTISSLQPEDFAVYYCYQYKSAWTFGQGTKVEIK | 0.22 nM
2 | HC6_LC_k3_4 (antibody, V domains shown) VH: EVQLVESGGGLVQPGGSLRLSCAASGFTFSNAAMYWVRQAPGKGLELVSRIRTKPNNYATYHADSVKGRFTISRDDSKNTLYLQMNSLRAEDTAVYYCTADMATGDYWGQGTLVTVSS VL: EIVMTQSPATLSLSPGERATLSCKASQNINENLDWYQQKPGQAPRPLIYSTNNLKTGIPARFSGSGSGTDFTLTISSLQPEDFAVYYCYQYKSAWTFGQGTKVEIK | 0.18 nM
3 | HC5_LC_k3_4 (antibody, V domains shown) VH: EVQLVESGGGLVQPGGSLRLSCAASGFTFSNAAMYWVRQAPGKGLELLARIRTKPNNYATYHADSVKGRFTISRDDSKNTVYLQMNSLRAEDTAVYYCTADMATGDYWGQGTLVTVSS VL: EIVMTQSPATLSLSPGERATLSCKASQNINENLDWYQQKPGQAPRPLIYSTNNLKTGIPARFSGSGSGTDFTLTISSLQPEDFAVYYCYQYKSAWTFGQGTKVEIK | 0.15 nM
4 | HC5_LC_k3_5 (antibody, V domains shown) VH: EVQLVESGGGLVQPGGSLRLSCAASGFTFSNAAMYWVRQAPGKGLELLARIRTKPNNYATYHADSVKGRFTISRDDSKNTVYLQMNSLRAEDTAVYYCTADMATGDYWGQGTLVTVSS VL: EIVMTQSPATLSLSPGERATLSCKASQNINKQLDWYQQKPGQAPRPLIYSTNNLKTGIPARFSGSGSGTDFTLTISSLQPEDFAVYYCYQYKSAWTFGQGTKVEIK | 0.13 nM
5 | HC5_LC_k3_2_v1 (antibody, V domains shown) VH: EVQLVESGGGLVQPGGSLRLSCAASGFTFSNAAMYWVRQAPGKGLELLARIRTKPNNYATYHADSVKGRFTISRDDSKNTVYLQMNSLRAEDTAVYYCTADMATGDYWGQGTLVTVSS VL: EIVMTQSPATLSLSPGERATLSCKASQNINKNLDWYQQKPGQAPRPLIYSTNNLKTGIPARFSGSGSGTDFTLTISSLQPEDFAVYYCYQYKSAWTFGQGTKVEIK | 0.17 nM
6 | HC5_LC_k3_6 (antibody, V domains shown) VH: EVQLVESGGGLVQPGGSLRLSCAASGFTFSNAAMYWVRQAPGKGLELLARIRTKPNNYATYHADSVKGRFTISRDDSKNTVYLQMNSLRAEDTAVYYCTADMATGDYWGQGTLVTVSS VL: EIVMTQSPATLSLSPGERATLSCKASANINKQLDWYQQKPGQAPRPLIYSTNNLKTGIPARFSGSGSGTDFTLTISSLQPEDFAVYYCYQYKSAWTFGQGTKVEIK | 0.19 nM
7 | HC5_LC_k3_3 (antibody, V domains shown) VH: EVQLVESGGGLVQPGGSLRLSCAASGFTFSNAAMYWVRQAPGKGLELLARIRTKPNNYATYHADSVKGRFTISRDDSKNTVYLQMNSLRAEDTAVYYCTADMATGDYWGQGTLVTVSS VL: EIVMTQSPATLSLSPGERATLSCKASQNINQNLDWYQQKPGQAPRPLIYSTNNLKTGIPARFSGSGSGTDFTLTISSLQPEDFAVYYCYQYKSAWTFGQGTKVEIK | 0.17 nM
8 | 20H4_HC5_LC_k3_2_v2 (antibody, V domains shown) VH: EVQLVESGGGLVQPGGSLRLSCAASGFTFSNAAMYWVRQAPGKGLELLARIRTKPNNYATYHADSVKGRFTISRDDSKNTVYLQMNSLRAEDTAVYYCTADMATGDYWGQGTLVTVSS VL: EIVMTQSPATLSLSPGERATLSCKASQNINKNLDWYQQKPGQAPRPLIYSTNNLQTGIPARFSGSGSGTDFTLTISSLQPEDFAVYYCYQYKSAWTFGQGTKVEIK | 1.3 nM
9 | HC6_LC_k3_3 (antibody, V domains shown) VH: EVQLVESGGGLVQPGGSLRLSCAASGFTFSNAAMYWVRQAPGKGLELVSRIRTKPNNYATYHADSVKGRFTISRDDSKNTLYLQMNSLRAEDTAVYYCTADMATGDYWGQGTLVTVSS VL: EIVMTQSPATLSLSPGERATLSCKASQNINQNLDWYQQKPGQAPRPLIYSTNNLKTGIPARFSGSGSGTDFTLTISSLQPEDFAVYYCYQYKSAWTFGQGTKVEIK | 0.16 nM
10 | HC6_LC_k3_1 (antibody, V domains shown) VH: EVQLVESGGGLVQPGGSLRLSCAASGFTFSNAAMYWVRQAPGKGLELVSRIRTKPNNYATYHADSVKGRFTISRDDSKNTLYLQMNSLRAEDTAVYYCTADMATGDYWGQGTLVTVSS VL: EIVMTQSPATLSLSPGERATLSCKASQNINNNLDWYQQKPGQAPRPLIYSTNNLKTGIPARFSGSGSGTDFTLTISSLQPEDFAVYYCYQYKSAWTFGQGTKVEIK | 0.16 nM
11 | 20H4_HC5_LC_k3_1 (antibody, V domains shown) VH: EVQLVESGGGLVQPGGSLRLSCAASGFTFSNAAMYWVRQAPGKGLELLARIRTKPNNYATYHADSVKGRFTISRDDSKNTVYLQMNSLRAEDTAVYYCTADMATGDYWGQGTLVTVSS VL: EIVMTQSPATLSLSPGERATLSCKASQNINNNLDWYQQKPGQAPRPLIYSTNNLKTGIPARFSGSGSGTDFTLTISSLQPEDFAVYYCYQYKSAWTFGQGTKVEIK | 0.13 nM

Target: T1, human alpha-synuclein monomer
Assay: as above
Remark: another data set of the same source
Experimental: as §1

Row | Binder | Kd
12 | HC2_L3_1 (antibody, V domains shown) VH: EVQLVESGGGLVQPGGSLRLSCAASGFTFSNAAMYWVRQAPGKGLELVSRIRTKPNNYATYHADSVKGRFTISRDNSKNTLYLQMNSLRAEDTAVYYCTADMATGDYWGQGTLVTVSS VL: DIQMTQSPSSLSASVGDRVTITCKASQNINKNLDWYQQKPGKAPKPLIYSTNNLQTGVPSRFSGSGSGTDFTLTISSLQPEDFATYYCYQDKNGWTFGQGTKVEIK | 4.2 nM
13 | HC2_L3_3 (antibody, V domains shown) VH: EVQLVESGGGLVQPGGSLRLSCAASGFTFSNAAMYWVRQAPGKGLELVSRIRTKPNNYATYHADSVKGRFTISRDNSKNTLYLQMNSLRAEDTAVYYCTADMATGDYWGQGTLVTVSS VL: DIQMTQSPSSLSASVGDRVTITCKASQNINKNLDWYQQKPGKAPKPLIYSTNNLQTGVPSRFSGSGSGTDFTLTISSLQPEDFATYYCYQDKKGWTFGQGTKVEIK | 5.28 nM
14 | HC2_L3_8 (antibody, V domains shown) VH: EVQLVESGGGLVQPGGSLRLSCAASGFTFSNAAMYWVRQAPGKGLELVSRIRTKPNNYATYHADSVKGRFTISRDNSKNTLYLQMNSLRAEDTAVYYCTADMATGDYWGQGTLVTVSS VL: DIQMTQSPSSLSASVGDRVTITCKASQNINKNLDWYQQKPGKAPKPLIYSTNNLQTGVPSRFSGSGSGTDFTLTISSLQPEDFATYYCYQFKKAWTFGQGTKVEIK | 3.01 nM
15 | HC2_L3_2 (antibody, V domains shown) VH: EVQLVESGGGLVQPGGSLRLSCAASGFTFSNAAMYWVRQAPGKGLELVSRIRTKPNNYATYHADSVKGRFTISRDNSKNTLYLQMNSLRAEDTAVYYCTADMATGDYWGQGTLVTVSS VL: DIQMTQSPSSLSASVGDRVTITCKASQNINKNLDWYQQKPGKAPKPLIYSTNNLQTGVPSRFSGSGSGTDFTLTISSLQPEDFATYYCYQDKRGWTFGQGTKVEIK | 4.52 nM
16 | HC2_L3_10 (antibody, V domains shown) VH: EVQLVESGGGLVQPGGSLRLSCAASGFTFSNAAMYWVRQAPGKGLELVSRIRTKPNNYATYHADSVKGRFTISRDNSKNTLYLQMNSLRAEDTAVYYCTADMATGDYWGQGTLVTVSS VL: DIQMTQSPSSLSASVGDRVTITCKASQNINKNLDWYQQKPGKAPKPLIYSTNNLQTGVPSRFSGSGSGTDFTLTISSLQPEDFATYYCYQYKLAWTFGQGTKVEIK | 2.93 nM
17 | HC2_L3_9 (antibody, V domains shown) VH: EVQLVESGGGLVQPGGSLRLSCAASGFTFSNAAMYWVRQAPGKGLELVSRIRTKPNNYATYHADSVKGRFTISRDNSKNTLYLQMNSLRAEDTAVYYCTADMATGDYWGQGTLVTVSS VL: DIQMTQSPSSLSASVGDRVTITCKASQNINKNLDWYQQKPGKAPKPLIYSTNNLQTGVPSRFSGSGSGTDFTLTISSLQPEDFATYYCYQYKYAWTFGQGTKVEIK | 2.98 nM
18 | HC2_L3_7 (antibody, V domains shown) VH: EVQLVESGGGLVQPGGSLRLSCAASGFTFSNAAMYWVRQAPGKGLELVSRIRTKPNNYATYHADSVKGRFTISRDNSKNTLYLQMNSLRAEDTAVYYCTADMATGDYWGQGTLVTVSS VL: DIQMTQSPSSLSASVGDRVTITCKASQNINKNLDWYQQKPGKAPKPLIYSTNNLQTGVPSRFSGSGSGTDFTLTISSLQPEDFATYYCYQYKNGWTFGQGTKVEIK | 4.59 nM
19 | HC2_L3_11 (antibody, V domains shown) VH: EVQLVESGGGLVQPGGSLRLSCAASGFTFSNAAMYWVRQAPGKGLELVSRIRTKPNNYATYHADSVKGRFTISRDNSKNTLYLQMNSLRAEDTAVYYCTADMATGDYWGQGTLVTVSS VL: DIQMTQSPSSLSASVGDRVTITCKASQNINKNLDWYQQKPGKAPKPLIYSTNNLQTGVPSRFSGSGSGTDFTLTISSLQPEDFATYYCYQYKFAWTFGQGTKVEIK | 3.4 nM
20 | HC2_L3_4 (antibody, V domains shown) VH: EVQLVESGGGLVQPGGSLRLSCAASGFTFSNAAMYWVRQAPGKGLELVSRIRTKPNNYATYHADSVKGRFTISRDNSKNTLYLQMNSLRAEDTAVYYCTADMATGDYWGQGTLVTVSS VL: DIQMTQSPSSLSASVGDRVTITCKASQNINKNLDWYQQKPGKAPKPLIYSTNNLQTGVPSRFSGSGSGTDFTLTISSLQPEDFATYYCYQDKSGWTFGQGTKVEIK | 2.84 nM
21 | HC2_L3_5 (antibody, V domains shown) VH: EVQLVESGGGLVQPGGSLRLSCAASGFTFSNAAMYWVRQAPGKGLELVSRIRTKPNNYATYHADSVKGRFTISRDNSKNTLYLQMNSLRAEDTAVYYCTADMATGDYWGQGTLVTVSS VL: DIQMTQSPSSLSASVGDRVTITCKASQNINKNLDWYQQKPGKAPKPLIYSTNNLQTGVPSRFSGSGSGTDFTLTISSLQPEDFATYYCYQYKNAWTFGQGTKVEIK | 3.24 nM
22 | HC2_L3_6 (antibody, V domains shown) VH: EVQLVESGGGLVQPGGSLRLSCAASGFTFSNAAMYWVRQAPGKGLELVSRIRTKPNNYATYHADSVKGRFTISRDNSKNTLYLQMNSLRAEDTAVYYCTADMATGDYWGQGTLVTVSS VL: DIQMTQSPSSLSASVGDRVTITCKASQNINKNLDWYQQKPGKAPKPLIYSTNNLQTGVPSRFSGSGSGTDFTLTISSLQPEDFATYYCYQYKKAWTFGQGTKVEIK | 3.28 nM
